Measurements from the supplement of paper PMC10065799, “High-throughput profiling of sequence recognition by tyrosine kinases and SH2 domains using bacterial peptide display” (eLife, 2023).

Experiments:
Fer (mouse) = assay: phosphorylation enrichment, bacterial display (enrichment ratio); higher = better substrate or ligand; peptides without Tyr show the background
Jak2 = Jak2 (UniProt O60674); assay: as above
c-Src = assay: as above
EPHB1 = EPHB1 (UniProt P54762); assay: as above
AncSZ = assay: as above
FGFR3 = FGFR3 (UniProt P22607); assay: as above
FGFR1 = FGFR1 (UniProt P11362); assay: as above
Fyn = Fyn (UniProt P06241); assay: as above
MERTK = MERTK (UniProt Q12866); assay: as above
Hck = Hck (UniProt P08631); assay: as above
c-Abl (mouse) = assay: as above
Fes = Fes (UniProt P07332); assay: as above
EPHB2 = EPHB2 (UniProt P29323); assay: as above
c-Src SH2 = assay: SH2 binding enrichment of the phosphorylated peptide, bacterial display (enrichment ratio); higher = better substrate or ligand; peptides without Tyr show the background
Grb2 SH2 = Grb2 SH2 (UniProt P62993); assay: as above
SHP2-C SH2 = assay: as above
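For SH2 binding enrichment of the phosphorylated peptide, bacterial display in this document: peptide library displayed on the E. coli surface as eCPX fusions, selected cells deep-sequenced, score is each peptide's frequency after selection divided by its frequency in the input.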
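For phosphorylation enrichment, bacterial display in this document: 11-residue human phosphosite peptides and single-mutation variants displayed on the E. coli surface, counted by deep sequencing, each peptide's frequency after selection divided by its frequency in the unselected input library; frequency after pTyr selection over input frequency; kinase dosed for 20-30% of maximal phosphorylation in three min.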

Chain of FGFR1 (P11362 whole entry, looked up): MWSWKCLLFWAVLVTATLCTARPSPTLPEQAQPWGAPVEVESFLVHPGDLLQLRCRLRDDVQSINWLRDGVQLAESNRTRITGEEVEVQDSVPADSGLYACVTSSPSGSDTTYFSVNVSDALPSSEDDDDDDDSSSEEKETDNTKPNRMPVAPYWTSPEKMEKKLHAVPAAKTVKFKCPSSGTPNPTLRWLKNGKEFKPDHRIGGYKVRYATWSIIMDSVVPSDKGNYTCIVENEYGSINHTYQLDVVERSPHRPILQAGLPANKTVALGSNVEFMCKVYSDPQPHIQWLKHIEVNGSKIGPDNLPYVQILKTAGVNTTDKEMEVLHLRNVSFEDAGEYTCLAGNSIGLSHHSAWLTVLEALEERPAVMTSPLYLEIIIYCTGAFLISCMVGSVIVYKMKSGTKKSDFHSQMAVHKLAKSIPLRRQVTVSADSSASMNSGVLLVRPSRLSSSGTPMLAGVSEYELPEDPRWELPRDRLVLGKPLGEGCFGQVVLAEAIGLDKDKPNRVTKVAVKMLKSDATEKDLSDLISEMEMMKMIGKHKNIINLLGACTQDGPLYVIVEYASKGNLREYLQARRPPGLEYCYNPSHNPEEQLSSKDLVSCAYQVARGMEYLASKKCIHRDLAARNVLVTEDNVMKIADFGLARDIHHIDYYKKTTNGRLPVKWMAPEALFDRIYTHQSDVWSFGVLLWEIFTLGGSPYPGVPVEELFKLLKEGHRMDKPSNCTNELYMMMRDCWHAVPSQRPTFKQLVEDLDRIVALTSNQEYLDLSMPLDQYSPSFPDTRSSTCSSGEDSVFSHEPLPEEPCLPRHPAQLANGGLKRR
Chain of EPHB1 (P54762 whole entry, looked up): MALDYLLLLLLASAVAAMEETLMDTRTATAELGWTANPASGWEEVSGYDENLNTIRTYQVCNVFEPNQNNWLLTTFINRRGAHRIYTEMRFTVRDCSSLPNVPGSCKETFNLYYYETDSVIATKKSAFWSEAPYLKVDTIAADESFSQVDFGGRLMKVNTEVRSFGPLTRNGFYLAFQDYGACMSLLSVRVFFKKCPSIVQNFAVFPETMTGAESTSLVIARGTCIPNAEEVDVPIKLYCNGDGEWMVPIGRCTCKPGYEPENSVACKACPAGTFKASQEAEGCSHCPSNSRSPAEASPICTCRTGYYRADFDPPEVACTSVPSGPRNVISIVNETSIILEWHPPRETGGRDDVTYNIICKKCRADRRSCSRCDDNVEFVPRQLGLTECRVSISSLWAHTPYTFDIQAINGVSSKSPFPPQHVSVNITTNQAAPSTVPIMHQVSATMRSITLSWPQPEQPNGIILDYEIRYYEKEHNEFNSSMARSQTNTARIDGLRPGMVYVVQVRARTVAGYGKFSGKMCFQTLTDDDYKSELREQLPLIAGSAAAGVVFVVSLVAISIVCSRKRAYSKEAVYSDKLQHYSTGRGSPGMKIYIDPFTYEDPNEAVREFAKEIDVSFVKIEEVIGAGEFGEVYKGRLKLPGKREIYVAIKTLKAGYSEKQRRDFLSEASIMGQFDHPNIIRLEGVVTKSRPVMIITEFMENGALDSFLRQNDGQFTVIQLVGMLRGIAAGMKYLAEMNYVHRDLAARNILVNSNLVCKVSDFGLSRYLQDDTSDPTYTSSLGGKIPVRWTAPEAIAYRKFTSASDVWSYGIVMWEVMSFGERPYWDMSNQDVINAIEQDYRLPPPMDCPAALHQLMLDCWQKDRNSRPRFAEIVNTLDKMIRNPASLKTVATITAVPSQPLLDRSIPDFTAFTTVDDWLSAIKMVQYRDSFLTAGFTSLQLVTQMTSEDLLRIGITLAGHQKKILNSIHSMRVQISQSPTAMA
Chain of Fyn (P06241 whole entry, looked up): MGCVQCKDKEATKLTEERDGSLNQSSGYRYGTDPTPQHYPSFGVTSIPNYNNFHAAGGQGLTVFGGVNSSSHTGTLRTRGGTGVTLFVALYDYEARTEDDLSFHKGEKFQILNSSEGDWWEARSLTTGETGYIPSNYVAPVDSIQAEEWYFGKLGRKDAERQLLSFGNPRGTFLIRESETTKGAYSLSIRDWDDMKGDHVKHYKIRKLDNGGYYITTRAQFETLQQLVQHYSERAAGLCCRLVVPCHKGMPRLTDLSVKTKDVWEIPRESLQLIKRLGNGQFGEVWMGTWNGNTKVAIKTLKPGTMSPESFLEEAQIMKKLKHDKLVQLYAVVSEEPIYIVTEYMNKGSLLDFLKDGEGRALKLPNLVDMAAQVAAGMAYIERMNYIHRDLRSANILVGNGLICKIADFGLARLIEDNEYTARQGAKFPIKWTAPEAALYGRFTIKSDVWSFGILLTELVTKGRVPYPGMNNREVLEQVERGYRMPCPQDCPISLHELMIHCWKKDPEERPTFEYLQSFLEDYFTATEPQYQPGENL
Chain of EPHB2 (P29323 whole entry, looked up): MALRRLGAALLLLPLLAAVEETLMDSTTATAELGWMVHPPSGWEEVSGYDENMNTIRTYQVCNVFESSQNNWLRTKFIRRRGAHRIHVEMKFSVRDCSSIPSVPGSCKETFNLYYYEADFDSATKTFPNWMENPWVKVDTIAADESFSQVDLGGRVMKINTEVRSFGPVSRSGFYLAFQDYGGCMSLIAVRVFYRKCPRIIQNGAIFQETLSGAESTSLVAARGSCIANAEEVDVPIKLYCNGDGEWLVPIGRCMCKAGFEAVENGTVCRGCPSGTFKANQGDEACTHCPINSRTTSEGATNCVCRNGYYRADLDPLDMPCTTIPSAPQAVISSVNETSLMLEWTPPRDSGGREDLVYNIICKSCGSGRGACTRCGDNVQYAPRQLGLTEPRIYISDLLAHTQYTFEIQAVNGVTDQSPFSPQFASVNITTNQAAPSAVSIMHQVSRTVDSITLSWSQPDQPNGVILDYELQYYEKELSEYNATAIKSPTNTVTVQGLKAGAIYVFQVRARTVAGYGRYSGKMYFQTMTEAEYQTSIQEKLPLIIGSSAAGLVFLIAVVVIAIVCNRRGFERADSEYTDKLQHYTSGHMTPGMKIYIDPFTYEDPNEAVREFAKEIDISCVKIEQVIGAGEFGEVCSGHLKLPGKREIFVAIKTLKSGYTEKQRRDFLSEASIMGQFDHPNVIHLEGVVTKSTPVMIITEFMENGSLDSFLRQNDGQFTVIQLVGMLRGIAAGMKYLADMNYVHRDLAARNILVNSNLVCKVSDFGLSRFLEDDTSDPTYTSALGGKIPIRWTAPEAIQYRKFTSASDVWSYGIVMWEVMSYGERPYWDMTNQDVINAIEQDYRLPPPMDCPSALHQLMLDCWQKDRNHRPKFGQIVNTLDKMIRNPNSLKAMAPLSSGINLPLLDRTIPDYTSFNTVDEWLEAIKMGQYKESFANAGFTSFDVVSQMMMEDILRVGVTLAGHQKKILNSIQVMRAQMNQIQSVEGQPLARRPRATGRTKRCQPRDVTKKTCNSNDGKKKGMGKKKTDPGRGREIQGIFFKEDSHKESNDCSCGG
Chain of Jak2 (O60674 whole entry, looked up): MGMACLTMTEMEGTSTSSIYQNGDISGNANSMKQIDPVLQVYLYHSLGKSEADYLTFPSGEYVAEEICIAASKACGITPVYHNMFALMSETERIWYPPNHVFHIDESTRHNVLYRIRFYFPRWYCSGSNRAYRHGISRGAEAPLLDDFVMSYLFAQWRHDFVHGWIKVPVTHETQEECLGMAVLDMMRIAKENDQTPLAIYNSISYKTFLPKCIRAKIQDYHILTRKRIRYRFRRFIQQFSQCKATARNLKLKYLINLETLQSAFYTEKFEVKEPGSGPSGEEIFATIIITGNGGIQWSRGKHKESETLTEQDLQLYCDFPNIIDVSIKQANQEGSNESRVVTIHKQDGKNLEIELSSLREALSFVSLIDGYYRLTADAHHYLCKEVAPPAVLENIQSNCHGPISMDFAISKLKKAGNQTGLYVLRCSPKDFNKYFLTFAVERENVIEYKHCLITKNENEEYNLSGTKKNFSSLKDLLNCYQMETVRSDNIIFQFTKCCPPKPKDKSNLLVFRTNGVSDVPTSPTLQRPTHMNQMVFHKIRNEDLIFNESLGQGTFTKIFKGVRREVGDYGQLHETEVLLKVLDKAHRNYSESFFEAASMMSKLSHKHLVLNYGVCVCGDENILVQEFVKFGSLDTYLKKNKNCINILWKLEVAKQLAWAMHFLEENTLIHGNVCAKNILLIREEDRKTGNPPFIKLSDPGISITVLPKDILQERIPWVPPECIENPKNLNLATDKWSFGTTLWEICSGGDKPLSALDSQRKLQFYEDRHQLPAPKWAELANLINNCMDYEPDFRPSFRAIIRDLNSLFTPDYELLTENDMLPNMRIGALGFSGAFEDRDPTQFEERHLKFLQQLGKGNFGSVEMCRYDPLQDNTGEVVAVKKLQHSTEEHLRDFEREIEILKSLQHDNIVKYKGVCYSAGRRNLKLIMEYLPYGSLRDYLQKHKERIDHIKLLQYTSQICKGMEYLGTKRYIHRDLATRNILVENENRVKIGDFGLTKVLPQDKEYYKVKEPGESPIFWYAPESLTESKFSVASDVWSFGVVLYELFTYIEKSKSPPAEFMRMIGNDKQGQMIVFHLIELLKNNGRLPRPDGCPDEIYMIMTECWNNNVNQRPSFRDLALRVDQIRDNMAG
Chain of Hck (P08631 whole entry, looked up): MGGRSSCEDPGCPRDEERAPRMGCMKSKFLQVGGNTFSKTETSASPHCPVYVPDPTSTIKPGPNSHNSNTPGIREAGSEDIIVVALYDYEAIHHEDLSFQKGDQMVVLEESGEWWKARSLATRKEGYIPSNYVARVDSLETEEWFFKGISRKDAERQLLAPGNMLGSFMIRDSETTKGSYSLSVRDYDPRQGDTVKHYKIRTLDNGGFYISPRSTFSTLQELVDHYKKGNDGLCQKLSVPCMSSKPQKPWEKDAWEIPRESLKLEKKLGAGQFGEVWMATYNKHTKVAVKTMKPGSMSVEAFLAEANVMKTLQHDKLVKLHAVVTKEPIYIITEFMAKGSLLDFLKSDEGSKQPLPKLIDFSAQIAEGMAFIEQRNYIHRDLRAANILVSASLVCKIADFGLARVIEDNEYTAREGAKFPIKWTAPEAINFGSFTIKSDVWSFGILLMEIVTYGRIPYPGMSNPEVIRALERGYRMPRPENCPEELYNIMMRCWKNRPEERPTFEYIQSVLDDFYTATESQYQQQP

Sequence	phosphorylation enrichment (Fer (mouse))	phosphorylation enrichment (Jak2)	phosphorylation enrichment (c-Src)	phosphorylation enrichment (EPHB1)	phosphorylation enrichment (AncSZ)	phosphorylation enrichment (FGFR3)	phosphorylation enrichment (FGFR1)	phosphorylation enrichment (Fyn)	phosphorylation enrichment (MERTK)	phosphorylation enrichment (Hck)	phosphorylation enrichment (c-Abl (mouse))	phosphorylation enrichment (Fes)	phosphorylation enrichment (EPHB2)	SH2 binding enrichment (c-Src SH2)	SH2 binding enrichment (Grb2 SH2)	SH2 binding enrichment (SHP2-C SH2)
FVSIVYNDFGE [TSC2_Y1650_S1653F]	0.514	0.991	0.856	0.605	1.21	0.801	0.561	0.599	0.422	0.642	0.725	1.16	0.665	1.52	1.96	1.68
RGEEPYTKKAL [TTC21B_Y160_K157E]	0.552	0.473	0.383	0.413	0.715	0.714	0.771	0.481	0.491	0.719	0.487	0.991	0.476	0.4	0.542	0.634
CEDGNYSPEIS [PTDSS1_Y424_T423N]	0.461	0.975	0.618	0.612	1.18	0.637	0.643	0.458	0.486	0.668	0.785	1.06	0.871	0.747	1.01	0.761
SPYAVYLFFTF [RPGRIP1_Y826_R827L]	0.628	0.783	0.748	0.47	0.928	0.87	0.446	0.617	0.533	0.569	0.797	1.08	0.487	0.542	1.07	0.71
SSVKLYRVFCD [FGB_Y266_P265L_YF]	0.469	0.935	0.47	0.579	0.945	0.749	0.487	0.468	0.41	0.514	0.648	1.12	0.668	0.395	0.665	0.633
TWSRSYRSDRL [CRYBB1_Y131_S129R]	0.452	0.778	0.545	0.445	0.676	0.494	0.607	0.453	0.518	0.614	0.586	0.715	0.51	0.38	0.636	0.354
LGPSDYFGETA [PRKAR1A_Y323_I327T]	0.422	0.749	0.55	0.597	0.964	0.636	0.585	0.518	0.398	0.509	0.448	0.808	0.425	0.59	0.817	0.499
TQPSPYAVFLF [RPGRIP1_Y823_R827L_YF]	7.3	0.926	5.76	2.12	0.826	0.942	1.28	6.88	7.59	3.69	15.1	0.915	1.28	0.494	0.91	0.82
CQKRKYIEIDS [SDAD1_Y580_S575C]	0.431	0.616	0.479	0.513	0.657	0.6	0.55	0.485	0.38	0.48	0.446	0.814	0.505	2.53	1.03	0.892
WNNLDYMDSRR [GAA_Y407_D404N]	0.498	0.749	0.412	0.914	0.964	0.636	0.538	0.464	0.392	0.572	0.581	0.907	0.821	0.527	0.861	1.43
RTIPDYTSFNT [EPHB2_Y912]	0.417	0.978	0.923	0.866	0.893	0.991	1.2	0.63	0.538	0.561	1.02	0.66	0.632	0.813	1.12	0.926
RFLFFYSFLLK [PTEN_Y178_V175L_YF]	0.765	1.53	1.41	0.984	2.12	0.754	0.885	0.79	0.782	0.631	1.51	1.78	0.574	0.808	1.58	1.29
PSELFYSKISP [SMG1_Y2254_G2258S_YF]	11.3	2.3	3.48	1.59	1.15	2.72	3.79	2.06	13.6	8.64	3.5	0.972	1.52	3.17	0.854	3.93
PEIIAYQPFGK [PRKCG_Y529_YF]	0.672	0.976	1.07	0.635	1.03	0.796	0.777	0.688	0.653	0.798	0.672	1.1	0.645	0.664	1.06	1.11
HPYNSYTYPRL [PAK5_Y316_S312P]	0.674	0.429	1.3	0.731	1.2	0.962	0.998	0.968	2.57	0.984	0.374	0.875	0.531	7.32	0.813	0.677
EEEFEYMNRRR [ERBB3_Y1199_D1194E_YF]	0.408	1.19	0.608	0.693	1.59	0.767	0.554	0.515	0.724	0.569	0.808	1.24	0.532	0.649	1.37	0.671
GEDEPYSEPFA [APBA1_Y183_YF]	0.512	1.02	0.598	0.485	1.34	0.68	0.603	0.588	0.493	0.599	0.598	1.06	0.523	0.593	0.936	0.914

Sequence	phosphorylation enrichment (Fer (mouse))	phosphorylation enrichment (Jak2)	phosphorylation enrichment (c-Src)	phosphorylation enrichment (EPHB1)	phosphorylation enrichment (AncSZ)	phosphorylation enrichment (FGFR3)	phosphorylation enrichment (FGFR1)	phosphorylation enrichment (Fyn)	phosphorylation enrichment (MERTK)	phosphorylation enrichment (Hck)	phosphorylation enrichment (c-Abl (mouse))	phosphorylation enrichment (Fes)	phosphorylation enrichment (EPHB2)	SH2 binding enrichment (c-Src SH2)	SH2 binding enrichment (Grb2 SH2)	SH2 binding enrichment (SHP2-C SH2)
QNKEDYAGLKE [GSTO1_Y139]	2.22	1.24	1.01	0.494	1.34	1.73	0.893	0.919	1.09	0.82	1.37	1.6	1.29	0.803	0.69	0.902
GKTQQYDCKWY [BCR_Y751]	0.432	1.05	0.55	0.554	0.864	0.598	0.464	0.441	0.515	0.554	0.769	1.05	0.532	0.758	0.805	0.601
VRLTEYPCAGL	0.381	0.673	0.398	0.456	0.638	0.523	0.396	0.358	0.367	0.428	0.527	0.781	0.457	0.572	0.932	0.76
PGVDIYVSPNM [PADI3_Y51_I52V]	0.708	1.24	0.885	1.17	1.37	0.781	0.809	1.52	0.629	2.76	2.3	1.71	1.46	0.524	0.804	0.555
VAVVDYVEPSP [TXNRD2_Y70]	0.52	0.912	0.416	0.561	1.35	0.683	0.603	0.53	0.415	0.454	0.627	0.974	0.776	0.446	0.792	0.696
QKMFDYLKEKK [RYR2_Y3780_L3778F]	0.574	0.805	0.471	0.558	0.797	0.595	0.459	0.445	0.403	0.471	0.763	0.958	0.438	0.363	0.743	0.738
LRNIDYHRLDG [ATRX_Y2083_Y2084H]	0.571	0.632	0.297	0.42	0.497	0.617	0.511	0.342	0.379	0.33	0.521	0.606	0.405	0.714	0.725	1.25
DLAAQYTTVGH [SGSH_Y240_R245H]	0.519	0.586	0.699	0.463	0.854	0.651	0.462	0.585	0.405	0.96	0.593	0.947	0.453	3.24	0.843	1.41
YQGGTYSKACT [FGG_Y380_S384C]	0.38	0.59	0.436	0.428	0.52	0.529	0.349	0.383	0.459	0.541	0.719	0.74	0.4	0.869	0.997	1.03
VVSLFYGTALF [OR10C1_Y251_M246V]	1.1	1.61	1.97	0.698	1.25	0.804	0.566	1.94	0.7	1.42	1.21	1.43	0.812	0.353	0.713	0.516
GYQPEYGQPAG [SYP_Y278_D277E]	0.487	0.725	0.443	0.451	0.662	0.659	0.401	0.426	0.467	0.419	0.466	0.851	0.451	0.495	0.801	0.553
STGWSYAGVAV [KLHL3_Y577_R575W]	0.616	0.69	0.462	0.515	0.929	0.549	0.484	0.416	0.352	0.581	0.463	0.776	0.454	0.529	0.718	0.965
TLNFCYQQVKS [PTK2_Y148_F147C]	0.501	1.07	0.524	0.718	1.25	0.884	0.617	0.44	0.399	0.52	0.936	1.28	0.709	0.786	0.898	0.896
QRPFVYFFSFL [PTEN_Y176_R173P_YF]	0.707	1.33	0.748	0.783	1.23	1.39	0.789	0.721	0.664	0.426	0.967	1.54	0.703	0.783	1.29	1.13
MYVKSYTIHYS [F5_Y2153]	0.508	0.86	0.425	0.723	1.03	0.815	0.542	0.492	0.446	0.516	0.674	1.17	0.732	0.443	0.666	0.826
SSAKTYSRMRL [NBEAL2_Y1835_E1833K]	0.379	0.52	0.427	0.354	0.433	0.394	0.34	0.406	0.4	0.453	0.542	0.552	0.366	0.773	0.869	0.802
